By stoichiometry N is commonly meant a count of units in the complex or per binding partner.

Experimental findings from PMC4833857 are described below.

The assay concerns the target Kluyveromyces marxianus Tor (KmTor), full-length (Kluyveromyces marxianus). Put plainly: SEC-MALS; 100 µl of 1 mg/ml KmTor-Lst8 complex on Superdex S200 10/300, 50 mM Tris pH 8.8 (23 °C), 300 mM NaCl, 0.3% CHAPS, 1 mM TCEP. Background: In gel filtration, larger molecules generally elute earlier.

Chain of Kluyveromyces marxianus Tor (KmTor), full-length (Kluyveromyces marxianus) (main, as listed by the source): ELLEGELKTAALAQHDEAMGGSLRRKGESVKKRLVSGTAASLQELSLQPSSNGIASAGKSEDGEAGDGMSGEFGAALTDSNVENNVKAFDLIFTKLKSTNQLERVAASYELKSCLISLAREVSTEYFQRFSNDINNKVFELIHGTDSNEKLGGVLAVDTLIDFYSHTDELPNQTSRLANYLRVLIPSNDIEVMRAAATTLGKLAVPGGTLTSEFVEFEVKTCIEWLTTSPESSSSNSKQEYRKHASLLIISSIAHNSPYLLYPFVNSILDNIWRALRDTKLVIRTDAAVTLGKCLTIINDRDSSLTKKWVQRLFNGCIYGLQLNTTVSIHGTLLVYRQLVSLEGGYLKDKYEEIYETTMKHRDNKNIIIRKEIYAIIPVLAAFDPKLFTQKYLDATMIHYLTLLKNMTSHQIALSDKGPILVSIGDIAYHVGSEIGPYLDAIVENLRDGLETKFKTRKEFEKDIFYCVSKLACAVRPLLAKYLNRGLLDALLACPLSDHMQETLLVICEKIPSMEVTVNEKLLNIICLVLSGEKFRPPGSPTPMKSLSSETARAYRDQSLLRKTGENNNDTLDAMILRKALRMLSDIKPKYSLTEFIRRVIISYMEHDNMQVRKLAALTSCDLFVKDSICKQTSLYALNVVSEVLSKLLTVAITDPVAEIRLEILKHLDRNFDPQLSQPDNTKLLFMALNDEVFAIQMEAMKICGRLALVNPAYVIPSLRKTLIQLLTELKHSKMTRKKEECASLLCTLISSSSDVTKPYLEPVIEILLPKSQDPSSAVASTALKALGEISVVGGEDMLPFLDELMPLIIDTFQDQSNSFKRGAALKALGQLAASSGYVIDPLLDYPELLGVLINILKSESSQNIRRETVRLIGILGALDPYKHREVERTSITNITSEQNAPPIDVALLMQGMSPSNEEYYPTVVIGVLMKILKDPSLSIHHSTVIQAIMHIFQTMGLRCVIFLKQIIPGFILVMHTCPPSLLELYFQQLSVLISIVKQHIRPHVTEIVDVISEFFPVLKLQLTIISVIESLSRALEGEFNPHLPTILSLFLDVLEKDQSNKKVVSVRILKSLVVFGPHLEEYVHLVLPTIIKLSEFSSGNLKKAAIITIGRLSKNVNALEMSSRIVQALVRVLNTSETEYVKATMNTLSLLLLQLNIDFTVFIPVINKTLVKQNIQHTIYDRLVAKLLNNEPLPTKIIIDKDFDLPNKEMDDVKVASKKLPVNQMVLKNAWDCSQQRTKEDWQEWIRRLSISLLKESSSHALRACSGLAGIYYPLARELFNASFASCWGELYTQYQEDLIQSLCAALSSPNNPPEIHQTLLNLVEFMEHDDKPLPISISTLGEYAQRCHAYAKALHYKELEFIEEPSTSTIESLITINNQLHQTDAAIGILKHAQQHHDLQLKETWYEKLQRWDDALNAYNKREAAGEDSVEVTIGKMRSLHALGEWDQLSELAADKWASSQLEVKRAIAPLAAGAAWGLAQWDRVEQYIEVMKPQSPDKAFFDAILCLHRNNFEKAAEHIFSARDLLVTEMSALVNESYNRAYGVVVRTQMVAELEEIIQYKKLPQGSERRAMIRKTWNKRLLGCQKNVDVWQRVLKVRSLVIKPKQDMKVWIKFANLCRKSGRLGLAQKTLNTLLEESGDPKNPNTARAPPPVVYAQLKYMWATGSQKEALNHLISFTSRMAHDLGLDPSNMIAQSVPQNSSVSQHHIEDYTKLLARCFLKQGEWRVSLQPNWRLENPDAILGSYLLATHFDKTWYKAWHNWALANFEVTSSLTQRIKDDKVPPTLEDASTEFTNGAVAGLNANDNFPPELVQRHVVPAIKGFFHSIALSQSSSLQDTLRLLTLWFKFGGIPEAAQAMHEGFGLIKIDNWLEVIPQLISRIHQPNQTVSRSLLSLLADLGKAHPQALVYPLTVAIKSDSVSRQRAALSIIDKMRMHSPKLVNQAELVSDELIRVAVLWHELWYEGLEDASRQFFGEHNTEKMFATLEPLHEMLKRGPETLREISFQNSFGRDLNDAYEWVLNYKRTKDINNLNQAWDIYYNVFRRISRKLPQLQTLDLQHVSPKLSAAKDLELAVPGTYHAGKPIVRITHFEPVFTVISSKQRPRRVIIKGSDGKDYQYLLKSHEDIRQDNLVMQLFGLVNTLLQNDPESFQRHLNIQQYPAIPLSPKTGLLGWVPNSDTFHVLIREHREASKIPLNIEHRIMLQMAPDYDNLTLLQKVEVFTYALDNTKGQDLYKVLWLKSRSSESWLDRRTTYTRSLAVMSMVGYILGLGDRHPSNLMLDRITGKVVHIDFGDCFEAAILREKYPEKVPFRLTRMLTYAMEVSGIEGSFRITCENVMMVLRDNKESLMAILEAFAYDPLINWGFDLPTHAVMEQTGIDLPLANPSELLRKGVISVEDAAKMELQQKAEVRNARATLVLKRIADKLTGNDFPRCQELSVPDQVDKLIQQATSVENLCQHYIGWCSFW

“Kluyveromyces marxianus Lst8 (KmLst8), full-length (natural protein)” registered a stoichiometry N of 1. For “Kluyveromyces marxianus Tor (KmTor), full-length”, the stoichiometry N worked out at 2.
